{"source": "patent US20070092508A1", "about": "“Detoxification depot for Alzheimer's disease” (Recombiant Technologies, LLC, priority 2005, published 2007)", "molecules": {"B1": {"name": "detox gel (RI gel): retro-inverso peptide phe-phe-val-leu-lys-Cys linked by its cysteine thiol to a cross-linked 8-arm PEG hydrogel (peptide)", "peptide": "FFVLKC", "modifications": "not fully specified; composed of D-amino acids; Cys thiol linked to vinyl sulfone-PEG of the gel matrix; C-terminus amidated per the note to Table 1"}}, "key": {"Aβ [1]": {"test_system": "Aβ", "sequence (P05067 672-711 limits assumed)": "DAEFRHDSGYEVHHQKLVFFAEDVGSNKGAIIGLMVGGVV", "details": "AD model mice, after 1 day of treatment; cited from earlier work"}, "Aβ fibril formation": {"target": "Aβ fibril formation (Homo sapiens, UniProt P05067)", "sequence (P05067 672-711 limits assumed)": "as above", "details": "microscopy; cited from earlier work"}, "Aβ [2]": {"target": "Aβ (Homo sapiens, UniProt P05067)", "sequence (P05067 672-711 limits assumed)": "as above", "details": "shortest fragment of Aβ1-40; cited from earlier work"}, "[3]": {"target": "T1, biotinylated Aβ^1-42 peptide (Homo sapiens, UniProt P05067)", "T1 construct": "purchased", "T1 sequence (P05067 672-713)": "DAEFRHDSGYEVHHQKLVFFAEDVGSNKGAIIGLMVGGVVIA", "assay": "Direct ELISA: plate-immobilised capture peptide probed with biotinylated Aβ1-42", "format": "binding", "details": "1 μg/well capture peptide, 1 μg/ml biotinylated Aβ, 2 hours; compared with scrambled or irrelevant control peptide (FIG. 1a)", "experimental": "(§1) FIG. 1a graphically illustrates binding of biotinylated Aβ^1-42 and biotinylated Aβ^1-40 peptide (SEQ ID NO: 2) by RI peptide. 96-well plate was coated with the capture peptide (1 μg/well of retro-inverso [RI], scrambled [SCR] or an irrelevant control peptide), blocked with gelatin and probed with 1 μg/ml of biotinylated Aβ peptide for 2 hours and streptavidin peroxidase for 1 hour. Experiments were repeated and were calculated as Mean±SE (N=2) and expressed as pmols Aβ^1-42/ml of binding solution. Graded concentrations of biotinylated Aβ^1-42 peptide (SEQ ID NO: 3) was used as a calibration standard.\n(§2) Testing the binding and stability of biotinylated Aβ peptides in binding solution."}, "[4]": {"target": "T2, biotinylated Aβ^1-40 peptide (Homo sapiens, UniProt P05067)", "T2 construct": "purchased", "T2 sequence (P05067 672-711)": "as the sequence (P05067 672-711 limits assumed) above", "assay": "Direct ELISA: plate-immobilised capture peptide probed with biotinylated Aβ1-40", "format": "binding", "details": "1 μg/well capture peptide, 1 μg/ml biotinylated Aβ, 2 hours; compared with scrambled or irrelevant control peptide (FIG. 1a)", "experimental": "as §1, §2"}, "[5]": {"target": "biotinylated Abeta 1-40 peptide", "sequence (peptide, as listed by the source)": "as the sequence (P05067 672-711 limits assumed) above", "assay": "binding experiments with the gel, ELISA of the solution"}}, "note": "Non-standard residues stand in square brackets, D forms with d. No end group written: not given here.", "data": [{"molecule": "GM1", "values": [{"measurement": "levels of Aβ in brain", "setting": "Aβ [1]", "value": "reduced in half"}, {"measurement": "reduction of Aβ in brain", "setting": "Aβ [1]", "value": "~500", "unit": "ng/g tissue"}]}, {"molecule": "KLVFF", "values": [{"measurement": "effect on fibril formation in vitro", "setting": "Aβ fibril formation", "value": "able to interfere with fibril formation"}, {"measurement": "Aβ binding capacity", "setting": "Aβ [2]", "value": "consistently high Aβ binding capacity"}]}, {"molecule": "gelsolin", "values": [{"measurement": "levels of Aβ in brain", "setting": "Aβ [1]", "value": "reduced in half"}, {"measurement": "reduction of Aβ in brain", "setting": "Aβ [1]", "value": "~500", "unit": "ng/g tissue"}]}, {"molecule": "phe-phe-val-leu-lys-Cys ([dF][dF][dV][dL][dK][dC]; not fully specified (C-terminus); printed as phe-phe-val-leu-lys-cys) [RI peptide]", "values": [{"measurement": "binding of biotinylated Aβ^1-42 to immobilised peptide", "setting": "[3]", "value": "significant and specific binding"}, {"measurement": "binding of biotinylated Aβ^1-40 to immobilised peptide", "setting": "[4]", "value": "significant and specific binding"}]}, {"molecule": "B1", "values": [{"measurement": "percent of possible binding in a 1:1 complex", "setting": "[5]", "value": 5, "unit": "%"}]}]}
